Three substances from article PMC3604701 can be followed below.

Where two headings read alike, the source gives them in different places.

The target in experiment [1] is LSD1 (residues 151–852), lysine-specific demethylase 1 (human) (UniProt O60341). Briefly: ITC.
For experiment [2] the target is unchanged. Briefly: ITC. The source holds these as a separate data set. (In ITC the heat of successive injections is recorded.)
Experiment [3] shares this target. Briefly: ITC. This is another data set of the same source.
Experiment [4] has the same target. Briefly: ITC. This is another data set of the same source.
For experiment [5] the target is unchanged. Briefly: ITC. This is another data set of the same source.
The target is the same in experiment [6]. Briefly: ITC. The source holds these as a separate data set.
Experiment [7] has the same target. Kind of experiment: ITC. This is another data set of the same source.
Experiment [8] shares this target. Kind of experiment: ITC. The source holds these as a separate data set.
Experiment [9] has the same target. Briefly: ITC. This is another data set of the same source.
Experiment [10] has the same target. Kind of experiment: ITC. The source holds these as a separate data set.
Experiment [11] shares this target. Briefly: ITC. This is another data set of the same source.
The target is the same in experiment [12]. Briefly: ITC. The source holds these as a separate data set.
Experiment [13] shares this target. Briefly: ITC. This is another data set of the same source.
Experiment [14] has as its target CoREST (RCOR1) residues 286-482 (linker region + SANT2 domain) (UniProt Q9UKL0). Kind of experiment: ITC. As to conditions: pH 7.4; 25 °C; no added salt; not stated numerically; 50 mM sodium phosphate.
UniProt Q9UKL0, sequence (Q9UKL0 whole entry, the tested form may be a part): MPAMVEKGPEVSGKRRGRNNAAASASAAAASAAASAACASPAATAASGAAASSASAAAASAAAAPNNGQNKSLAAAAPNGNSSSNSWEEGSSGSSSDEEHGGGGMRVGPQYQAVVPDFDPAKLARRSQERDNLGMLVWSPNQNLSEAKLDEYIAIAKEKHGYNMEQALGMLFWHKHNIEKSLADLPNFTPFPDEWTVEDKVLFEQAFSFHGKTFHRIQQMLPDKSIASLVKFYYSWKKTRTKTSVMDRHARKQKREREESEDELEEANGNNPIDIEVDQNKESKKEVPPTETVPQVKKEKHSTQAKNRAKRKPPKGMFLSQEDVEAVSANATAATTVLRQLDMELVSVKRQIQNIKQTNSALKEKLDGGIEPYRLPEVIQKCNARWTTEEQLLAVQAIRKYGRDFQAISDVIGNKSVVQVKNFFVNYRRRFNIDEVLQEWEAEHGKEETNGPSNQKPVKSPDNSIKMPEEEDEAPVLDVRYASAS
The target is the same in experiment [15]. Kind of experiment: SPR. Particulars: pH 7.4; no added salt; not stated numerically; 50 mM sodium phosphate.
The target is the same in experiment [16]. Briefly: ITC. As to conditions: pH 7.4, 25 °C, no added salt, not stated numerically.
The target is the same in experiment [17]. Briefly: ITC. As to conditions: pH 7.4, no added salt, not stated numerically, 50 mM sodium phosphate.

Broadly, the Kd is the free concentration of one partner at which half of the binding sites on the other are occupied at equilibrium, for simple one-to-one binding. A higher Kd goes with lower affinity. Usually stoichiometry N stands for the number of molecules, sites or subunits per partner or assembly. As to “linker region^293–380 of CoREST (domain or fragment)”, in experiment [1], the dissociation constant (Kd) came to 7.78 nM, the dH is -13.5 kcal/mol and the stoichiometry N stood at 0.96.
As for “CoREST^286–482 (linker region and SANT2 domain) (domain or fragment)”, the Kd in experiment [2] is 7.66 nM; in experiment [3] it was 4.18 nM; in experiment [4], 3.7 nM; in experiment [5] it was 21.7 nM; in experiment [6], 8.54 nM; in experiment [7], 21.2 nM. The Kd in [8] stood at 11.7 nM; in [1], 15.9 nM; in experiment [9] it was 17.3 nM; in [10], 3.18 nM; in experiment [11], 6.75 nM; in experiment [12], 8.03 nM. Further, the Kd in experiment [13] was 5.84 nM. In addition, the dH in experiment [2] was -15.6 kcal/mol; in experiment [3], -8.56 kcal/mol; in experiment [4], -16.1 kcal/mol; in experiment [5] it was -4.24 kcal/mol; in [1], -21.3 kcal/mol; in experiment [10] it was -12.1 kcal/mol. Also, the dH in experiment [11] was -12.9 kcal/mol; in [12], -20.2 kcal/mol. The stoichiometry N in [2] was 1; in [3] it was 0.9; in [4] it was 1.03; in experiment [5], 0.99; in [6], 0.92; in experiment [7], 0.93. For the same substance, the stoichiometry N in experiment [8] is 1.01; in [1] it was 1.14; in [9], 1.11; in [10], 1.01; in [11], 1; in experiment [12], 0.97. The substance also returned a stoichiometry N in [13] of 0.91. Besides, the dH (ΔHcal) was -10.9 kcal/mol in experiment [6]; -12.6 kcal/mol in experiment [7]; -15.2 kcal/mol in [8]; -19.5 kcal/mol in experiment [9]; -17.4 kcal/mol in [13]. The substance also showed a Ka in experiment [1] of 6.29e+07 M⁻¹.
A word on the koff: it is the first-order rate constant of dissociation. As usually defined, the kon is the rate constant with which the complex forms. As for “LSD1 (KDM1A, lysine-specific histone demethylase 1) residues 151-852”, the ΔG in [14] was -11.6 kcal/mol; in [16] (50 mM ACES), -10.1 kcal/mol; in experiment [16] (50 mM HEPES) it was -10.9 kcal/mol; in [16] (50 mM PIPES), -11.2 kcal/mol; in experiment [16] (50 mM Tris) it was -10.8 kcal/mol; in experiment [16] (50 mM sodium phosphate) it was -10.6 kcal/mol. For the same substance, the ΔG in experiment [17] (15 °C) is -10.1 kcal/mol; in experiment [17] (25 °C), -10.6 kcal/mol; in experiment [17] (30 °C), -11.7 kcal/mol; in experiment [17] (35 °C), -11.4 kcal/mol. Besides, the ΔH was -12.1 kcal/mol in [14] and -21.3 kcal/mol in [17] (25 °C). Further, the koff in [15] came out at 7.78e-05 s⁻¹. In addition, in experiment [15], the on-rate constant (kon) is 56300 M⁻¹ s⁻¹. Moreover, the ΔHcal in experiment [16] (50 mM ACES) is -12.6 kcal/mol; in experiment [16] (50 mM HEPES) it was -15.2 kcal/mol; in experiment [16] (50 mM PIPES), -17.4 kcal/mol; in experiment [16] (50 mM Tris), -10.9 kcal/mol; in [16] (50 mM sodium phosphate), -19.5 kcal/mol. Also, the Ka in experiment [17] (25 °C) was 6.29e+07 M⁻¹.
